From IntAct's records for PubMed 25910212

B1: DNA repair protein XRCC4 (Homo sapiens), Q13426 (parent)
chain: MERKISRIHLVSEPSITHFLQVSWEKTLESGFVITLTDGHSAWTGTVSESEISQEADDMAMEKGKYVGELRKALLSGAGPADVYTFNFSKESCYFFFEKNLKDVSFRLGSFNLEKVENPAEVIRELICYCLDTIAENQAKNEHLQKENERLLRDWNDVQGRFEKCVSAKEALETDLYKRFILVLNEKKTKIRSLHNKLLNAAQEREKDIKQEGETAICSEMTADRDPVYDESTDEESENQTDLSGLASAAVSKDDSIISSLDVTDIAPSRKRRQRMQRNLGTEPKMAPQENQLQEKENSRPDSSLPETSKKEHISAENMSLETLRNSSPEDLFDEI
B2: 5-aminolevulinate synthase, erythroid-specific, mitochondrial (Homo sapiens), P22557-2 (parent)
chain: MVTAAMLLQCCPVLARGPTSLLGKVVKTHQFLFGIGRCPILATQGPNCSQIHLKATKAGGDSPSWAKGHCPFMLSELQDGKSKIVQKAAPEVQEDVKAFKTGNYVFSYDQFFRDKIMEKKQDHTYRVFKTVNRWADAYPFAQHFSEASVASKDVSVWCSNDYLGMSRHPQVLQATQETLQRHGAGAGGTRNISGTSKFHVELEQELAELHQKDSALLFSSCFVANDSTLFTLAKILPGCEIYSDAGNHASMIQGIRNSGAAKFVFRHNDPDHLKKLLEKSNPKIPKIVAFETVHSMDGAICPLEELCDVSHQYGALTFVDEVHAVGLYGSRGAGIGERDGIMHKIDIISGTLGKAFGCVGGYIASTRDLVDMVRSYAAGFIFTTSLPPMVLSGALESVRLLKGEEGQALRRAHQRNVKHMRQLLMDRGLPVIPCPSHIIPIRVGNAALNSKLCDLLLSKHGIYVQAINYPTVPRGEELLRLAPSPHHSPQMMEDFVEKLLLAWTAVGLPLQDVSVAACNFCRRPVHFELMSEWERSYFGNMGPQYVTTYA
partner: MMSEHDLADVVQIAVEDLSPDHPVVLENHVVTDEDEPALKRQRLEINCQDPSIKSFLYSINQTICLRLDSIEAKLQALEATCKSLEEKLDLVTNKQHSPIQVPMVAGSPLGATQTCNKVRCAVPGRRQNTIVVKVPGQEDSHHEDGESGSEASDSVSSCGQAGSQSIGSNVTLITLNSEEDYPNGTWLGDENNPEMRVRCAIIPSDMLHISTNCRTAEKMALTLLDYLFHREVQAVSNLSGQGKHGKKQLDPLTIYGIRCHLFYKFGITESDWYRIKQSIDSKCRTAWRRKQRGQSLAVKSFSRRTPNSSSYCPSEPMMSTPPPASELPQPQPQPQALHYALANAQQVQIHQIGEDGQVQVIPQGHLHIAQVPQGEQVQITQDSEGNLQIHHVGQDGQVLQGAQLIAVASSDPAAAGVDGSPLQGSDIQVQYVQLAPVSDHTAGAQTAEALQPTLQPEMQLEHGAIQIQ
B3: U4/U6 small nuclear ribonucleoprotein Prp31 (Homo sapiens), Q8WWY3 (parent)
chain: MSLADELLADLEEAAEEEEGGSYGEEEEEPAIEDVQEETQLDLSGDSVKTIAKLWDSKMFAEIMMKIEEYISKQAKASEVMGPVEAAPEYRVIVDANNLTVEIENELNIIHKFIRDKYSKRFPELESLVPNALDYIRTVKELGNSLDKCKNNENLQQILTNATIMVVSVTASTTQGQQLSEEELERLEEACDMALELNASKHRIYEYVESRMSFIAPNLSIIIGASTAAKIMGVAGGLTNLSKMPACNIMLLGAQRKTLSGFSSTSVLPHTGYIYHSDIVQSLPPDLRRKAARLVAAKCTLAARVDSFHESTEGKVGYELKDEIERKFDKWQEPPPVKQVKPLPAPLDGQRKKRGGRRYRKMKERLGLTEIRKQANRMSFGEIEEDAYQEDLGFSLGHLGKSGSGRVRQTQVNEATKARISKTLQRTLQKQSVVYGGKSTIRDRSSGTASSVAFTPLQGLEIVNPQAAEKKVAEANQKYFSSMAEFLKVKGEKSGLMST
partner: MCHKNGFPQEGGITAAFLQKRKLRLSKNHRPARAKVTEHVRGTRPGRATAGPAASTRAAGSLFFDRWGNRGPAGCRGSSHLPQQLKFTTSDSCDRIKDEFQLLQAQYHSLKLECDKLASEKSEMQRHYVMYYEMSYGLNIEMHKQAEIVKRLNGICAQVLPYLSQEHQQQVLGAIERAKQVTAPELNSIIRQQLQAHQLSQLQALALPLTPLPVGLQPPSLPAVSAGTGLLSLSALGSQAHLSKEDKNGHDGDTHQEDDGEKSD
B4: Emerin (Homo sapiens), P50402 (parent)
chain: MDNYADLSDTELTTLLRRYNIPHGPVVGSTRRLYEKKIFEYETQRRRLSPPSSSAASSYSFSDLNSTRGDADMYDLPKKEDALLYQSKGYNDDYYEESYFTTRTYGEPESAGPSRAVRQSVTSFPDADAFHHQVHDDDLLSSSEEECKDRERPMYGRDSAYQSITHYRPVSASRSSLDLSYYPTSSSTSFMSSSSSSSSWLTRRAIRPENRAPGAGLGQDRQVPLWGQLLLFLVFVIVLFFIYHFMQAEEGNPF
partner: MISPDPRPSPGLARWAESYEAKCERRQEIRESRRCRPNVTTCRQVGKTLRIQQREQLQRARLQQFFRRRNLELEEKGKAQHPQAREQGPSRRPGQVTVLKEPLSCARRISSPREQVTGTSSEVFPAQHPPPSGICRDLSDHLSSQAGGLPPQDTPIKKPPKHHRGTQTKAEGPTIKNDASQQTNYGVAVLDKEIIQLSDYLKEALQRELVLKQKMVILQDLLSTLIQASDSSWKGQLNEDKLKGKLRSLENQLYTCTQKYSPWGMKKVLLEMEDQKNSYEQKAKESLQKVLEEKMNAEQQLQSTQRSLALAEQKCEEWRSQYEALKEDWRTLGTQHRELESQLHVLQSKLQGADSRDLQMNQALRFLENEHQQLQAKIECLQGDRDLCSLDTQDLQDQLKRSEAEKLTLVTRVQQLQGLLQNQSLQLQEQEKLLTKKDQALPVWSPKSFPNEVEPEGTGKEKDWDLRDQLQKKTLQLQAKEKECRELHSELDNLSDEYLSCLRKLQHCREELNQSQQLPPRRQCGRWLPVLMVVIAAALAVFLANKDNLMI
B5: Chorion-specific transcription factor GCMb (Homo sapiens), O75603 (parent)
chain: MPAAAVQEAVGVCSYGMQLSWDINDPQMPQELALFDQFREWPDGYVRFIYSSDEKKAQRHLSGWAMRNTNNHNGHILKKSCLGVVVCTQACTLPDGSRLQLRPAICDKARLKQQKKACPNCHSALELIPCRGHSGYPVTNFWRLDGNAIFFQAKGVHDHPRPESKSETEARRSAIKRQMASFYQPQKKRIRESEAEENQDSSGHFSNIPPLENPEDFDIVTETSFPIPGQPCPSFPKSDVYKATCDLATFQGDKMPPFQKYSSPRIYLPRPPCSYELANPGYTNSSPYPTLYKDSTSIPNDTDWVHLNTLQCNVNSYSSYERSFDFTNKQHGWKPALGKPSLVERTNHGQFQAMATRPYYNPELPCRYLTTPPPGAPALQTVITTTTKVSYQAYQPPAMKYSDSVREVKSLSSCNYAPEDTGMSVYPEPWGPPVTVTRAASPSGPPPMKIAGDCRAIRPTVAIPHEPVSSRTDEAETWDVCLSGLGSAVSYSDRVGPFFTYNNEDF
partner: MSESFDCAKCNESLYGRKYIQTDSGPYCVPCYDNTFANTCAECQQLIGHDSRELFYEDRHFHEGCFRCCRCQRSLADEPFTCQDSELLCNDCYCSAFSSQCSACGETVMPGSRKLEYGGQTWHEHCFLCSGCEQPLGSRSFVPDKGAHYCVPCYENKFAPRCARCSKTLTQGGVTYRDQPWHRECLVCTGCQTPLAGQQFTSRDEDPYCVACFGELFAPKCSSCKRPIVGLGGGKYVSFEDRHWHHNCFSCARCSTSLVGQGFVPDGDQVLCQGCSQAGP
B6: Keratin, type II cytoskeletal 2 epidermal (Homo sapiens), P35908 (parent)
chain: MSCQISCKSRGRGGGGGGFRGFSSGSAVVSGGSRRSTSSFSCLSRHGGGGGGFGGGGFGSRSLVGLGGTKSISISVAGGGGGFGAAGGFGGRGGGFGGGSSFGGGSGFSGGGFGGGGFGGGRFGGFGGPGGVGGLGGPGGFGPGGYPGGIHEVSVNQSLLQPLNVKVDPEIQNVKAQEREQIKTLNNKFASFIDKVRFLEQQNQVLQTKWELLQQMNVGTRPINLEPIFQGYIDSLKRYLDGLTAERTSQNSELNNMQDLVEDYKKKYEDEINKRTAAENDFVTLKKDVDNAYMIKVELQSKVDLLNQEIEFLKVLYDAEISQIHQSVTDTNVILSMDNSRNLDLDSIIAEVKAQYEEIAQRSKEEAEALYHSKYEELQVTVGRHGDSLKEIKIEISELNRVIQRLQGEIAHVKKQCKNVQDAIADAEQRGEHALKDARNKLNDLEEALQQAKEDLARLLRDYQELMNVKLALDVEIATYRKLLEGEECRMSGDLSSNVTVSVTSSTISSNVASKAAFGGSGGRGSSSGGGYSSGSSSYGSGGRQSGSRGGSGGGGSISGGGYGSGGGSGGRYGSGGGSKGGSISGGGYGSGGGKHSSGGGSRGGSSSGGGYGSGGGGSSSVKGSSGEAFGSSVTFSFR
partner: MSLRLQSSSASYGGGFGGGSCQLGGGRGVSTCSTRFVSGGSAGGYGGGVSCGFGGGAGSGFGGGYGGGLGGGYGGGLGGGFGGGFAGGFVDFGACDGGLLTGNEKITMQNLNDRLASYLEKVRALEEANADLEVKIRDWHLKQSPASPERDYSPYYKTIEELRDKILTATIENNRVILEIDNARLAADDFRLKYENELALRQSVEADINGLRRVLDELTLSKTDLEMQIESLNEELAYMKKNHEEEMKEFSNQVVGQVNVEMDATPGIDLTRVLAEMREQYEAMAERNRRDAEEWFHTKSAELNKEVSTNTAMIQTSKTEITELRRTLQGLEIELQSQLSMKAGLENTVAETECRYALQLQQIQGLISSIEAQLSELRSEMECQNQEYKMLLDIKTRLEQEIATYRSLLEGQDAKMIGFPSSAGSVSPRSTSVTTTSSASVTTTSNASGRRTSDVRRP
B7: Phytanoyl-CoA dioxygenase, peroxisomal (Homo sapiens), O14832 (parent)
chain: MEQLRAAARLQIVLGHLGRPSAGAVVAHPTSGTISSASFHPQQFQYTLDNNVLTLEQRKFYEENGFLVIKNLVPDADIQRFRNEFEKICRKEVKPLGLTVMRDVTISKSEYAPSEKMITKVQDFQEDKELFRYCTLPEILKYVECFTGPNIMAMHTMLINKPPDSGKKTSRHPLHQDLHYFPFRPSDLIVCAWTAMEHISRNNGCLVVLPGTHKGSLKPHDYPKWEGGVNKMFHGIQDYEENKARVHLVMEKGDTVFFHPLLIHGSGQNKTQGFRKAISCHFASADCHYIDVKGTSQENIEKEVVGIAHKFFGAENSVNLKDIWMFRARLVKGERTNL

Variants of: B1
Conditions: with XRCC4, Q13426-3

Row | Variant | effect of a mutation on the interaction
1 | I134T | with no effect

Variants of: B2
Conditions: with BANP

Row | Variant | effect of a mutation on the interaction
2 | I439N | disrupting interaction strength
3 | I252T | disrupting interaction strength
4 | R411Q | disrupting interaction strength
5 | R133H | with no effect

Variants of: B3
Conditions: with TLE5, Q08117-2

Row | Variant | effect of a mutation on the interaction
6 | L107V | with no effect

Variants of: B4
Conditions: with TRAF3IP3, Q9Y228

Row | Variant | effect of a mutation on the interaction
7 | P183H | with no effect
8 | S54F | with no effect

Next, values leading:

Row | effect of a mutation on the interaction | Variant
9 | with no effect | D72V
10 | with no effect | P183T

Variants of: B5
Conditions: with fhl3_human FHL3, Q13643

Row | Variant | effect of a mutation on the interaction
11 | R47L | disrupting interaction strength
12 | G63S | with no effect
13 | G203S | with no effect

Variants of: B6
Conditions: with KRT13, P13646

Row | Variant | effect of a mutation on the interaction
14 | L484P | with no effect
15 | N186K | with no effect
16 | G219D | with no effect
17 | I477N | disrupting interaction strength

Variants of: B7
Conditions: with fam9b_human FAM9B

Row | Variant | effect of a mutation on the interaction
18 | N83Y | disrupting interaction strength
19 | P29S | with no effect
